Measured values published in the DeepSol protein solubility set.

test: soluble on expression in E. coli; label from the status in PepcDB or PDB records

Row | Sequence | soluble on expression in E. coli
1 | MGSSHHHHHHSSGLVPRGSHMLEDPGEGQDIWDMLDKGNPFQFYLTRVSGVKPKYNSGALHIKDILSPLFGTLVSSAQFNYCFDVDWLVKQYPPEFRKKPILLVHGDKREAKAHLHAQAKPYENISLCQAKLDIAFGTHHTKMMLLLYEEGLRVVIHTSNLIHADWHQKTQGIWLSPLYPRIADGTHKSGESPTHFKANLISYLTAYNAPSLKEWIDVIHKHDLSETNVYLIGSTPGRFQGSQKDNWGHFRLKKLLKDHASSMPNAESWPVVGQFSSVGSLGADESKWLCSEFKESMLTLGKESKTPGKSSVPLYLIYPSVENVRTSLEGYPAGGSLPYSIQTAEKQNWLHSYFHKWSAETSGRSNAMPHIKTYMRPSPDFSKIAWFLVTSANLSKAAWGALEKNGTQLMIRSYELGVLFLPSALGLDSFKVKQKFFAGSQEPMATFPVPYDLPPELYGSKDRPWIWNIPYVKAPDTHGNMWVPS | soluble
2 | IGQVDFGIAGNFSYNKNEILDLGGGDPNKYLDATDGYSQRNKVGEAMNSYYIYRADGFFNSQEEADAYTAKYGNPFGKTFKAGDLRYVDTNKDGKLTADDREYCGSSDPKIIYGFNINAGWKGIDLSLMFNGAAGVKRLFDGYEVYGNFSGDAAHPATIWRDAWTPDNHDASMPRIFYDTNSASSSRSVQSDFWLQDTSYLRLKNLQLGYTLPKGWLNSVGVENIRIYYSVENLLTFDKMKINIDPESTSQRLSSYPLLRTHAFGVNVTF | not soluble
3 | GRAGGRTLGEQWKEKLNAMGKEEFFSYRKEAILEVDRTEARRARREGNKVGGHPVSRGTAKLRWLVERRFVQPIGKVVDLGCGRGGWSYYAATMKNVQEVRGYTKGGPGHEEPMLMQSYGWNIVTMKSGVDVFYKPSEISDTLLCDIGESSPSAEIEEQRTLRILEMVSDWLSRGPKEFCIKILCPYMPKVIEKLESLQRRFGGGLVRVPLSRNSNHEMYWVSGASGNIVHAVNMTSQVLIGRMDKKIWKGPKYEEDVNLGSGTRAVGK | soluble
4 | TKDFIWNLSFNGTHYSNKILNLPEDKRENGIIHGTASLFRLMEGGSIYDLYTYEYAGVNPETGAAQWYMDEKDANGKVTGRTVTEDYTQASKYELGSTLPDFQGGFSTDFAYKGIDLSIATNFQIGGKIYDSMYSSFMHAGSNIGSNWHKDILNAWTPENKNTNVPIMDGAQNSNSQSSRFLINASFFNIRNISLGYTFPKEWMKAISASSARIYVSADNVALFSKRKGMDPRQYAYGYSAANYSAIRTLSFGINLNF | not soluble
5 | MGSDKIHHHHHHMARMFYDEMHDAGGECRSHYREFARWLADTPEEQLLQRRREADLLFHRAGITFTLYGDEQGTERLIPFDTIPRSIPAAEWAHIEAGCIQRVQALNLFLADLYHEQRILKAGVIPAEQVLANDQYQLAMQGLDLPGNVYAHIAGVDLVRDGSGNYYVLEDNLRTPSGVSYMLENRKMMMRLFPELFVRQRVAPIDHYPDLLLDTLKRASDVESPSVVVLTPGRFNSAYFEHAFLAREMGVELVEGADLFVRDERVYMRTTAGPQPVDVIYRRIDDAFLDPLAFNPDSLLGVPGLLAAYRAGNLVLANAIGTGVADDKSIYPYVPDMIRFYLGEDPLLHNVPTWQCRKPKELAHVLAHLPELVVKETQGSGGYGMLVGPAASREEIELFRERLKARPEAYIAQPTLSLSTCPTFVESGVAPRHIDLRPFVLSAPDRVRLVPGGLTRVALREGSLVVNSSQGGGTKDTWVVEE | not soluble
6 | MGSDKIHHHHHHMQTHQELYLPRMGCGTWAWGNQLLWGYNESMDEQLQAVFNLCVSNGVTLFDTGDSYGTGRLNGRSELLLGQFAQEYQGVNQENICIATKLAAYPWRWTRQSMINACKSSAQRLGRNVDLVQMHWSTANYAPWQESGLLDGLADLYEQGLVKGVGLSNYGTKRLQRVHQKFAERGVPIKTLQVQYSLLSTYPVTELGLKDVCDQLGIKLIAYSPLALGILTGKYSEKGPFPRGVRGLLFRQLLPGVRSLLQCLQDVAQSRNKTMSQVALNWCIAKGTIPIPGAKSVKQAQENIGALGWQLDSGEIAELDKAAASSDKKMVQNIFQTK | not soluble
7 | MGSDKIHHHHHHMHNKFYRGRFAVAPMLDWTTRHCRYFHRQFSQQALLYTEMITAPAILHAKYDLLEYDPAEQPVALQLGGSDPTQLANCAKLVQARGYTEINLNVGCPSDRVQNGMFGACLMANADLVADCIKAMQDVVDIPVTIKHRIGIDTLDSYAFLCDFIDKIQPYSQDFIVHARKAWLSGLSPKENREIPPLDYERVYQLKRDFPQLNISINGGIKTIDEIKQHLTKVDGVMVGREAYQNPALLGEIDQQLFDQNQPLITARIAVENMLPYIEQQLSKGVYLNHIVRHMLGAFQNCKGARQWRRHLSENACKQGAGIEVVEQALRFVTE | not soluble
8 | MLSKKLHDALNDQMNFEFYSAHAYMAMAAYCTAESYDGFANFFLVQAEEERFHAMKLYNYINDRGERAIITGFDNPNNEYESVLNAFEVALEHEREVTKRIYNLSDIAWDEREHATITFLKWFVDEQVEEEASFDSIIQKLKRITSDSNALFMLDAELEKRTFTPPAE | not soluble
9 | MPQILVDADACPVKAEIKQVAKEFQLEVTFVASFNHYSVNTNGENWIFVDTGKESADMRMMNLAKKGDIIVTQDIGLASILLAKGTFVFSNRGELYREEEMSLMLDIRYRHAKERQQGKYSKGPKAMSDQDRSLFKDRLTTFLQNKLEHHHHHH | soluble
10 | MIFAYNKEQVGDVLLVILEDTKDIKRSVERKGKVARVTADETGKTLAWNIFEASSLIDIEGNGQVFLSDQDVAILNEELAKEGFEERLENTQGPVFVVGQIDEMVPHPDSDHLNICQVNIGDKKVQIVAGAPNASPGLKTIVALPGAMMPSGALIFPGKLRGEDSYGMMCSPRELALPNAPQKRGIIELDDSAVVGEAFDPAKHWKRLEHHHHHH | soluble
11 | MKAVSPVRPSGRKAPSGCGGGELALRCLAEHGHSLGGSAAAAAAAAAARCKAAEAAADEPALCLQCDMNDCYSRLRRLVPTIPPNKKVSKVEILQHVIDYILDLQLALETHPALLRQPPPPAPPHHPAGTCPAAPPRTPLTALNTDPAGAVNKQGDSILCR | soluble
12 | MAAQQPLSQEQLLHFWGAHNTMGKMTRRTSQSDGGKPSGNSNAAGGAGTKPKVATPQVVAKIEQYKRDNPTIFAWEIREKLISEDVCTTPPSVSSINRILRTRAAERAAEELQMILSAQHLARPRAQQVRLPPAFPFPFPLVWPGLLPNPAQLSLLLNSGALAPPVQSGGAGGPGVFGNSGQISVDSNLNLSEDDSTLGANARRLSRSTFTNEQLQSLEEVFLRDPYPSPNERADLVKRTNLPEARIQVWFSNRRAKWRKTNANGSDRDELRAERSETDDALSISSQSPSPGGGQETGSDEGKKKTITLFKPYE | not soluble
13 | MQVLDKTQVEAVSKALGEPAWLLEKRLKALEAFARLPYPSKKDENWRYTDLSEAPLELPVEAPKGLRLSRDDLPEPVKRRLERTDVSGFLVFVGPDLVYAEVPEALKEKGLVFTSLAEALKTHPDKVEAALFQAVYTEDKFAAQNSAFFTHGAFLYVPAGLEVEKPLGVFKVLLEGEKASAGRSLLFLEDNAKAAYIEEYLSLDLPPTLHLSATEMVLRPGARLRHAHVQTFGEGVWHFHRQRALLERDSGLNDLVVNLGGAYARSEVASELVGPGAESEMLGLYFGHGRQQFDHYTLQHHVEHHTRSDLLYKGAVKDEARAVFSGLIRLEKGAQKTDAYQANRNLLLSPTARVDSIPQLEIGANDVRCTHGSTTAPVDEMQLFYLQSRGLPRGLAQELLVKAHLADVLSRIPLKALRAHIEAVIEEKVRI | soluble
14 | MTYEAFVELVERLWEEVPEDFKRGLQGVHVFPEAKPEPGLEGVWRLGEYLDPGPPSAFGGFEDLGRHIALYYGSFLEVAGEGFDWEAEVWETMLHELRHHLESLAGRDDLVQEDLRRLDAFRRGGPSGEG | soluble
15 | MHDASHNSLFKTKWMNDYLVDWLCARPIWNDVHKYRTHHTRHHAKTSTPEDPDLTLVAGFPTTKTSLTRKFLRDLVGITGFKFTVGRILMDAEVLKWTVANDLTWLPRENRQWYDYPKVFLKNSSKAIIANASIFGILWAFGRPELYLLWPLAYLTPFPLFIRIRSMAEHAGTQISNNALTNTRTTKAGWLARAFVAPIRVNYHMEHHLMAAVPFFKLPKMHQMLRERGHVPEPPTYVQVIHMLSSHQTNQHPLNSVEQGELEHHHHHH | soluble
16 | MAHHHHHHMLPLDSPPVTQLAKEFVNFINEACTPFHAVEVLSSWLSNAGYQRLKEGETWPKLTNGYRYFITRNDSSLVAFSVGGRFVAENGLKIVGAHTDSPNLALKPRTLAGRSDYQGVAVQCYGGGLWHTWFDRDLTVAGRVIISSSKLVKRLVKVNKPIMRIPTLAIHLQSVEERNAFGPNKEKHLVPVIATTLSHTPNGDVSEHHNSQLLILLAESLGCRPSEIVDYDLSVVDTQDAVVGGANDEFIYAPRLDNLISCFCGVKALLESDKTLEEENMIRMVCLFDNEEVGSSTSQGAGGSLVPDVIEYISASGGLRAQLVANSFLMSVDGAHAVHPNYQDKHEEKHRPLIHRGPVIKYNANMRYATNGVTAAIVKAIAKRASVPIQEFCVKNDSPCGSTIGPILSSLSGIQTVDLGNPMLSMHSIREMCGTADLLHLKNLLEAFFNHYTRDMVTS | not soluble
17 | SKDPAFTALLTTQLQVQREIVNKHNELRKAVSPPASNMLKMEWSREVTTNAQRWANKCTLQHSDPEDRKTSTRCGENLYMSSDPTSWSSAIQSWYDEILDFVYGVGPKSPNAVVGHYTQLVWYSTYQVGCGIAYCPNQDSLKYYYVCQYCPAGNNMNRKNTPYQQGTPCAGCPDDCDKGLCTNSCQYQDLLSNCDSLKNTAGCEHELLKEKCKATCLCENKIY | soluble
18 | MGSDKIHHHHHHMSARYLDPKKRHEFVFLFDVRDGNPNGDPDAGNLPRVDPETMHGLVTDVALKRKIRDYIALTREGKPRFAIFVQSRVALNRLILEGFQEAGIEPVSLQLAEEQMANESLLEHLDGLAEAGFSREGGTLYYSGQATTEKEIAKLLMGEEEAVAPFKKELEKLAKELAKAVKGRKITEEDRERAQAKLLERFFDIRMFGAVLSTGLNAGQVRGPVQLTFARSLDPIAPLEVSITRVAITREEDRARKETEMGRKPLVPYGLYRAHGFFNPFLAAKTGVQPEDLEALWDALQHLFELDRSAARGEMTVRGLAVFSHEDAKGNAPAHRLFGLIRVERREGVEAPRSFADYRVRAPKEGSLEAHGFPGVHLAWLVRPEGLEDLPPHVG | not soluble
19 | MSEDSELIEQVIEQPDSLIISPPSDSSSSSYNHIQPFVYLESTATTQTNHNVLLILNQKITIDLISLWKKCEIIVCADGGANSLYEYFNDNNHHHHHENLQRSDYIPDYIVGDFDSISPDVKTYYESHGSKIIRQSSQYYNDFTKSIHCIQLHYQLNHTKENWFESIDEVDGLAKLWNGLNNSSDVVVDIDITIYVLNAIGGRFDQTVQSINQLYIMNEDYPKVTVFFITTNDIIFLLKKGVNYISYKNRLMFHKDNGSSPTPTCGLLPLSNKTPIILNSYGLKYDMRNWKTEMLGQVSSSNRISGETGFIVECSDDIVMNIEIDV | soluble
20 | ITDNTLIRNDTGDGDAVYDLVLNADGLDEDYSYQLKVMEEQPSDKQANELFTQAKKEIDDSFCEENQSVEQVRGHVIMKDAYASGAVEAEWTLSDYDVVDINGDVNQDAFEEADDEQGKLISASVELSCGEHRQLYDFSFVVFPDELEAGERLIKDINRHIDSEMSKTGTKKLTLPDEVDGVKLSWSQEKSNTAAKIAMLEVVVIVLLVLEKKEKKKTAQKERNIQLQLEYPEIVSKMAVLMGSGMTVEQAWNRITARYLDERKNNDKNIMPAYEEMLVTEREISDGVTGRKAYAGFAERVKLPCYQKLVRIILQSIHKGSKGVCEMLEKESEDAFDERRLLALKLGEEAGTKM | not soluble
